Article PMC11417369, “DNA sequence and chromatin differentiate sequence-specific transcription factor binding in the human malaria parasite Plasmodium falciparum”
Positions count from the first letter of the chain named.

Molecular target: AP2-I D3 (Plasmodium falciparum, UniProt Q8IJW6 910-1027)
Experiment: gcPBM; about 25 ug protein; PBS, 1% milk, 0.2 mg/ml BSA, salmon testes DNA, 0.03% Triton X-100
Conditions: tags: N-terminal GST (pGEX-4T-1), kept; label: surface-attached array probe

B1: GTGCAC_site10494 (dsDNA)
DNA 1: AATATATAGGAAAAAGTGCAATAAATGAACAAAATA
DNA 2: TATTTTGTTCATTTATTGCACTTTTTCCTATATATT
With B1 the binding signal was 11.3 ln median PBM intensity, better of two orientations.

B2: GTGCAC_site10322 (dsDNA)
DNA 1: TTTTTTTTTTTGTGAGTGCACGTATGAAGAGAAAAA
DNA 2: TTTTTCTCTTCATACGTGCACTCACAAAAAAAAAAA
In the case of B2, the binding signal is reported as 11.2 ln median PBM intensity, better of two orientations.

B3: GTGCAC_site10687 (dsDNA)
DNA 1: TATATATATTATATAGTGCATTGAAGAAGGGGATTT
DNA 2: AAATCCCCTTCTTCAATGCACTATATAATATATATA
For B3, the binding signal was 11.1 ln median PBM intensity, better of two orientations.

B4: GTGCAC_site10781 (dsDNA)
DNA 1: ACATTTTTGGTTTTAGTGCAATATGAATTATTTTAT
DNA 2: ATAAAATAATTCATATTGCACTAAAACCAAAAATGT
With B4 the binding signal was 11 ln median PBM intensity, better of two orientations.

B5: GTGCAC_site10697 (dsDNA)
DNA 1: AATATTTCTCATTTTGTGCACTGAAAAATGTAATAT
DNA 2: ATATTACATTTTTCAGTGCACAAAATGAGAAATATT
For B5, the binding signal was 11 ln median PBM intensity, better of two orientations.

B6: GTGCAC_site10266 (dsDNA)
DNA 1: TCTTAAAATATATAGGTGCAAAAAAAAAAAAAAAAA
DNA 2: TTTTTTTTTTTTTTTTTGCACCTATATATTTTAAGA
B6 was tested, and the binding signal was 10.9 ln median PBM intensity, better of two orientations.

B7: GTGCAC_site9873 (dsDNA)
DNA 1: CCCTCCCCATGTTTAGTGCAAAAATATTTGAAATTG
DNA 2: CAATTTCAAATATTTTTGCACTAAACATGGGGAGGG
With B7 the binding signal was 10.9 ln median PBM intensity, better of two orientations.

B8: GTGCAC_site10062 (dsDNA)
DNA 1: TCTATTTTCTTATGAATGCACTAATTTATAAAACGT
DNA 2: ACGTTTTATAAATTAGTGCATTCATAAGAAAATAGA
For B8, the binding signal was 10.8 ln median PBM intensity, better of two orientations.

B9: GTGCAC_site9938 (dsDNA)
DNA 1: GAATTATAAATTATAGTGCATAAAATTATGGCATAA
DNA 2: TTATGCCATAATTTTATGCACTATAATTTATAATTC
For B9, the binding signal was 10.8 ln median PBM intensity, better of two orientations.

B10: GTGCAC_site9804 (dsDNA)
DNA 1: TCAAAAGAATAATTGGTGCAAATTATATAATATAAT
DNA 2: ATTATATTATATAATTTGCACCAATTATTCTTTTGA
B10 was tested, and the binding signal was 10.8 ln median PBM intensity, better of two orientations.

B11: GTGCAC_site10675 (dsDNA)
DNA 1: GTAGTTATATTAAGGGTGCTTAATTAGATTAAACAA
DNA 2: TTGTTTAATCTAATTAAGCACCCTTAATATAACTAC
For B11, the binding signal was 10.8 ln median PBM intensity, better of two orientations.

B12: GTGCAC_site9626 (dsDNA)
DNA 1: TTTATTAATAAAAAGGTGCAATCAGGAAAAATTATC
DNA 2: GATAATTTTTCCTGATTGCACCTTTTTATTAATAAA
B12 was tested, and the binding signal was 10.7 ln median PBM intensity, better of two orientations.

B13: GTGCAC_site9423 (dsDNA)
DNA 1: ACACATACACATTAGGTGCATATATTTCAATATTAC
DNA 2: GTAATATTGAAATATATGCACCTAATGTGTATGTGT
With B13 the binding signal was 10.6 ln median PBM intensity, better of two orientations.

B14: GTGCAC_site9467 (dsDNA)
DNA 1: AAATAATGAAACAAAGTGCATAAAAATATACATATA
DNA 2: TATATGTATATTTTTATGCACTTTGTTTCATTATTT
In the case of B14, the binding signal is reported as 10.6 ln median PBM intensity, better of two orientations.

B15: GTGCAC_site10309 (dsDNA)
DNA 1: GTTAATTTTTGTATAGTGCAAAAATATAATAGTATG
DNA 2: CATACTATTATATTTTTGCACTATACAAAAATTAAC
With B15 the binding signal was 10.6 ln median PBM intensity, better of two orientations.

B16: GTGCAC_site10026 (dsDNA)
DNA 1: ATATAAGTATTTTGAATGCACTTTCTTTTTTTTTTT
DNA 2: AAAAAAAAAAAGAAAGTGCATTCAAAATACTTATAT
In the case of B16, the binding signal is reported as 10.5 ln median PBM intensity, better of two orientations.

B17: GTGCAC_site10615 (dsDNA)
DNA 1: ATTTTTTTTGTAAAAGTGCATATATATATATATATA
DNA 2: TATATATATATATATATGCACTTTTACAAAAAAAAT
In the case of B17, the binding signal is reported as 10.5 ln median PBM intensity, better of two orientations.

B18: GTGCAC_site9508 (dsDNA)
DNA 1: TAATAAAAAGTTGAGGTGCATATAGAGTTCTTCTTT
DNA 2: AAAGAAGAACTCTATATGCACCTCAACTTTTTATTA
In the case of B18, the binding signal is reported as 10.5 ln median PBM intensity, better of two orientations.

B19: GTGCAC_site10217 (dsDNA)
DNA 1: ATATATTTTTGTAGTGTGCACGTTTATATGGTGAAA
DNA 2: TTTCACCATATAAACGTGCACACTACAAAAATATAT
With B19 the binding signal was 10.5 ln median PBM intensity, better of two orientations.

B20: GTGCAC_site9779 (dsDNA)
DNA 1: TTTTGTTATAATAAAGTGCATTTAGTCGGGTTACAA
DNA 2: TTGTAACCCGACTAAATGCACTTTATTATAACAAAA
For B20, the binding signal was 10.4 ln median PBM intensity, better of two orientations.

B21: GTGCAC_site10268 (dsDNA)
DNA 1: TTTTTTGTTATTGGCGTGCACATATCCATTTATAGT
DNA 2: ACTATAAATGGATATGTGCACGCCAATAACAAAAAA
In the case of B21, the binding signal is reported as 10.4 ln median PBM intensity, better of two orientations.

B22: GTGCAC_site10398 (dsDNA)
DNA 1: AAATACTTATTCGTGGTGCAACAATTTTAAAAATTA
DNA 2: TAATTTTTAAAATTGTTGCACCACGAATAAGTATTT
B22 was tested, and the binding signal was 10.4 ln median PBM intensity, better of two orientations.

B23: GTGCAC_site10220 (dsDNA)
DNA 1: CATATAAAAAATATGGTGCAGTTTTTTTTTTTTTTT
DNA 2: AAAAAAAAAAAAAAACTGCACCATATTTTTTATATG
B23 was tested, and the binding signal was 10.3 ln median PBM intensity, better of two orientations.

B24: GTGCAC_site9648 (dsDNA)
DNA 1: ATAATTTCACAAATAGTGCAAAAATTAGTAAGAATA
DNA 2: TATTCTTACTAATTTTTGCACTATTTGTGAAATTAT
B24 was tested, and the binding signal was 10.3 ln median PBM intensity, better of two orientations.

B25: GTGCAC_site9543 (dsDNA)
DNA 1: CAATATTTGTTATGGGTGCAAACCGCATATATATAA
DNA 2: TTATATATATGCGGTTTGCACCCATAACAAATATTG
With B25 the binding signal was 10.3 ln median PBM intensity, better of two orientations.

B26: GTGCAC_site10474 (dsDNA)
DNA 1: TTTTTTGTTACAACAGTGCAAAAAAACCTTAATGTT
DNA 2: AACATTAAGGTTTTTTTGCACTGTTGTAACAAAAAA
For B26, the binding signal was 10.2 ln median PBM intensity, better of two orientations.

B27: GTGCAC_site9428 (dsDNA)
DNA 1: B25 DNA 1 with C1A, T6G, G25A
DNA 2: B25 DNA 2 with C12T, A31C, G36T
With B27 the binding signal was 10.2 ln median PBM intensity, better of two orientations.

B28: GTGCAC_site10317 (dsDNA)
DNA 1: TTATATTTTCTCCGCGTGCACATATGTATACTATAC
DNA 2: GTATAGTATACATATGTGCACGCGGAGAAAATATAA
With B28 the binding signal was 10.2 ln median PBM intensity, better of two orientations.

B29: GTGCAC_site9494 (dsDNA)
DNA 1: TTGTTTTTAATATCGGTGCAATGGAAAGAAAAGAAG
DNA 2: CTTCTTTTCTTTCCATTGCACCGATATTAAAAACAA
B29 was tested, and the binding signal was 10.2 ln median PBM intensity, better of two orientations.

B30: GTGCAC_site10240 (dsDNA)
DNA 1: CTTTTAGAATAATCAGTGCAAAAAAAAAAAAAAAAA
DNA 2: TTTTTTTTTTTTTTTTTGCACTGATTATTCTAAAAG
For B30, the binding signal was 10.1 ln median PBM intensity, better of two orientations.

B31: GTGCAC_site10469 (dsDNA)
DNA 1: ATTTTCACCTGAACGGTGCATATTTAATTTTAGGTT
DNA 2: AACCTAAAATTAAATATGCACCGTTCAGGTGAAAAT
With B31 the binding signal was 10 ln median PBM intensity, better of two orientations.

B32: GTGCAC_site9782 (dsDNA)
DNA 1: AAAATATAAATTCATGTGCACATATATATTTTGTTA
DNA 2: TAACAAAATATATATGTGCACATGAATTTATATTTT
In the case of B32, the binding signal is reported as 9.03 ln median PBM intensity, better of two orientations.

B33: GTGCAC_site10638 (dsDNA)
DNA 1: TAATATAATGATGCAGTGCATATGTTAAAATGAAAA
DNA 2: TTTTCATTTTAACATATGCACTGCATCATTATATTA
With B33 the binding signal was 9.15 ln median PBM intensity, better of two orientations.

B34: GTGCAC_site10565 (dsDNA)
DNA 1: AAAAAAGAACGCATAGTGCATATCTAAAAGATTTTT
DNA 2: AAAAATCTTTTAGATATGCACTATGCGTTCTTTTTT
For B34, the binding signal was 9.16 ln median PBM intensity, better of two orientations.

B35: GTGCAC_site9681 (dsDNA)
DNA 1: ACTACGAATGGTAGAGTGCAGTCTGGAGAAAAGTAC
DNA 2: GTACTTTTCTCCAGACTGCACTCTACCATTCGTAGT
For B35, the binding signal was 9.19 ln median PBM intensity, better of two orientations.

B36: GTGCAC_site10324 (dsDNA)
DNA 1: TTGTTTTATTATTCGATGCACTACAGAAATATATTC
DNA 2: GAATATATTTCTGTAGTGCATCGAATAATAAAACAA
For B36, the binding signal was 9.21 ln median PBM intensity, better of two orientations.

B37: GTGCAC_site9514 (dsDNA)
DNA 1: GTAGGATTTTCTTTTGTGCGCAATATAAAAAGAAAA
DNA 2: TTTTCTTTTTATATTGCGCACAAAAGAAAATCCTAC
With B37 the binding signal was 9.23 ln median PBM intensity, better of two orientations.

B38: GTGCAC_site9605 (dsDNA)
DNA 1: AAGGGAAAAATATGGTTGCACTAAAAATATGTAATT
DNA 2: AATTACATATTTTTAGTGCAACCATATTTTTCCCTT
With B38 the binding signal was 9.25 ln median PBM intensity, better of two orientations.

B39: GTGCAC_site9414 (dsDNA)
DNA 1: TTAAATATTTTTAGAGTGCATGTAATAAAAATATAA
DNA 2: TTATATTTTTATTACATGCACTCTAAAAATATTTAA
In the case of B39, the binding signal is reported as 9.27 ln median PBM intensity, better of two orientations.

B40: GTGCAC_site10115 (dsDNA)
DNA 1: TTTGTTTGTAAAATGTTGCACTTTCTTTTGCTGATA
DNA 2: TATCAGCAAAAGAAAGTGCAACATTTTACAAACAAA
B40 was tested, and the binding signal was 9.33 ln median PBM intensity, better of two orientations.

B41: GTGCAC_site9741 (dsDNA)
DNA 1: ATTCATATTTTTCAAGTGCGCATTAAAATATTAACC
DNA 2: GGTTAATATTTTAATGCGCACTTGAAAAATATGAAT
In the case of B41, the binding signal is reported as 9.34 ln median PBM intensity, better of two orientations.

B42: GTGCAC_site10497 (dsDNA)
DNA 1: AAAAAAAAAAAATGTGTGCACATTATTTCAACTTAA
DNA 2: TTAAGTTGAAATAATGTGCACACATTTTTTTTTTTT
In the case of B42, the binding signal is reported as 9.36 ln median PBM intensity, better of two orientations.

B43: GTGCAC_site9563 (dsDNA)
DNA 1: AAAATAATCTTTTGATTGCACTGTTACATTTTTTCT
DNA 2: AGAAAAAATGTAACAGTGCAATCAAAAGATTATTTT
For B43, the binding signal was 9.41 ln median PBM intensity, better of two orientations.

B44: GTGCAC_site10006 (dsDNA)
DNA 1: ATATATTAACAAAAGGTGCTTTTGGCAAAGTATAAT
DNA 2: ATTATACTTTGCCAAAAGCACCTTTTGTTAATATAT
For B44, the binding signal was 9.45 ln median PBM intensity, better of two orientations.
